Source: paper PMC7762974, “Recombination and Pol ζ Rescue Defective DNA Replication upon Impaired CMG Helicase—Pol ε Interaction” (International Journal of Molecular Sciences, 2020)
Values belong to the molecule of their own block, whether it stands above or below them.

Tests used:
Assay in all cases: pull-down; 2 pmol Halo-Sld5 GINS fixed on 10 µL HaloLink Resin, blocked with casein and BSA; 2 pmol Pol ε with 2 mg/mL BSA in 400 µL 25 mM HEPES-KOH pH 7.6, 200 mM K-acetate, 2 mM Mg-acetate, 10% glycerol, 0.1% Tween 20, 0.01% NP-40, 30 °C for 30 min; blot for Dpb2 and Psf2, band intensity compared to Psf1
[1] = target: GINS complex with the Psf1-1 mutant subunit (R84G), Psf2, Psf3, Halotag-Sld5 (S. cerevisiae) (UniProt Q12488)
[2] = target: GINS complex with the Psf1-100 mutant subunit (V161A, F162A, I163A, D164A), Psf2, Psf3, Halotag-Sld5 (S. cerevisiae) (UniProt Q12488)
[3] = target: T1, DNA polymerase epsilon (Pol ε) comprising Pol2, Dpb2, Dpb3 and Dpb4 subunits (S. cerevisiae, UniProt P21951 1-2222; P24482 1-689; P27344 1-201; Q04603 1-196); settings: both partners purified
T1 construct: Pol2, catalytic subunit of DNA polymerase epsilon, S. cerevisiae; Dpb2, noncatalytic subunit of DNA polymerase epsilon, S. cerevisiae; Dpb3, noncatalytic subunit of DNA polymerase epsilon, S. cerevisiae; Dpb4, noncatalytic subunit of DNA polymerase epsilon, S. cerevisiae; source: purified as described previously [40]; copies: + + +
T1 sequence (P21951 whole entry, chain 1 of 4): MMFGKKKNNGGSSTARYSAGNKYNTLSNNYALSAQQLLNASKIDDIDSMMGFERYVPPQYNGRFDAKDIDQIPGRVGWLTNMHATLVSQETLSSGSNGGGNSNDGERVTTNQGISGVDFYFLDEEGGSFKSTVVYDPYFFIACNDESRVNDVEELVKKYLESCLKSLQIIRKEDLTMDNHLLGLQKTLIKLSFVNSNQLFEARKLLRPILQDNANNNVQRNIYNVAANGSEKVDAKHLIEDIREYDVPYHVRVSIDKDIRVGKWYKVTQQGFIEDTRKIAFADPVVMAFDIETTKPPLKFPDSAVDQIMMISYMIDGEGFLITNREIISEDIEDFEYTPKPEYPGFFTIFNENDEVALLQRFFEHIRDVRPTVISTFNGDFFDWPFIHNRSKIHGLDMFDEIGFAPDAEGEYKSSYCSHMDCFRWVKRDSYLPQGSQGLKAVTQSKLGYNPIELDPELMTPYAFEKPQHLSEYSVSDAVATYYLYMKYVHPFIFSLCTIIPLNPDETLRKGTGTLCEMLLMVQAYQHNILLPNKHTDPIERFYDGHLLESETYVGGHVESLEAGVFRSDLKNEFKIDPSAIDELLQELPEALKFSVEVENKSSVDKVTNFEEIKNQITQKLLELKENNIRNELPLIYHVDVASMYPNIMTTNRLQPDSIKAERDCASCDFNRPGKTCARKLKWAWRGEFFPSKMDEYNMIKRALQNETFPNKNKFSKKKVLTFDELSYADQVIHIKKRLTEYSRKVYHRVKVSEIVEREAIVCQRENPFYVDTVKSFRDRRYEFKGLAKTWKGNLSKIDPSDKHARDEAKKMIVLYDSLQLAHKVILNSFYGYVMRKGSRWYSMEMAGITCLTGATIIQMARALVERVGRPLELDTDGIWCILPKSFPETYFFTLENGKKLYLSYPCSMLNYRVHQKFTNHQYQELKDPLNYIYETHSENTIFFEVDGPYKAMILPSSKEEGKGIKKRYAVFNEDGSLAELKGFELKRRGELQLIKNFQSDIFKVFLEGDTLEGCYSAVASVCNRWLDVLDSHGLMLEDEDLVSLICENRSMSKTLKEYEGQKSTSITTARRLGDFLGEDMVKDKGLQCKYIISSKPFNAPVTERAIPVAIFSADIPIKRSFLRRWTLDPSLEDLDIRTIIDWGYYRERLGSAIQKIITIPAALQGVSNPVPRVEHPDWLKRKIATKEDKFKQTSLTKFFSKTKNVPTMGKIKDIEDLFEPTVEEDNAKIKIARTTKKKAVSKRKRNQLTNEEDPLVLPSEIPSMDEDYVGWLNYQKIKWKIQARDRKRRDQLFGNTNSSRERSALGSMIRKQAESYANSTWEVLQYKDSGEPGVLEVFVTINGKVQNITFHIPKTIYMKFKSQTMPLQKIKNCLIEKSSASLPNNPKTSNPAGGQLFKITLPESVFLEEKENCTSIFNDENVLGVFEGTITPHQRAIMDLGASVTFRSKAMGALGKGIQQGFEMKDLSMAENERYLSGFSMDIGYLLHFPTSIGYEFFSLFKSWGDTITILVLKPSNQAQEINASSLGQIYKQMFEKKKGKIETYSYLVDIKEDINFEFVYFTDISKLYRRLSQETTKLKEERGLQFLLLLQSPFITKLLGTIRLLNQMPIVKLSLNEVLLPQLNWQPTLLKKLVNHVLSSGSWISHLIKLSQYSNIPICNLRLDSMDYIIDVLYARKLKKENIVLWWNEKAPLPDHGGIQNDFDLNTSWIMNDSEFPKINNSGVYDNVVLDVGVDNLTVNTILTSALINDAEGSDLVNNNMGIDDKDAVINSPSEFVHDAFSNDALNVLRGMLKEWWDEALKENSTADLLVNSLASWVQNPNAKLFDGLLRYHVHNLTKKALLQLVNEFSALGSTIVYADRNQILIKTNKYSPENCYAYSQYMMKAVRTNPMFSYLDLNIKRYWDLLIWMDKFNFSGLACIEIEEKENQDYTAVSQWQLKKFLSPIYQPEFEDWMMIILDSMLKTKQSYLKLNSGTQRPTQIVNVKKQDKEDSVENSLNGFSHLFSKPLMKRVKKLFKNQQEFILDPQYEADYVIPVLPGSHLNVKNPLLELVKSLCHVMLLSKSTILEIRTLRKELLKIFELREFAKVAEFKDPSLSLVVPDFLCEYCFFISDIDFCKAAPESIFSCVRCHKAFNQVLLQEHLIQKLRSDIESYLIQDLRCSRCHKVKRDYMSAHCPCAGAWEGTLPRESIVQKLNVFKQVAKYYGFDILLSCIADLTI
T1 sequence (P24482 whole entry, chain 2 of 4): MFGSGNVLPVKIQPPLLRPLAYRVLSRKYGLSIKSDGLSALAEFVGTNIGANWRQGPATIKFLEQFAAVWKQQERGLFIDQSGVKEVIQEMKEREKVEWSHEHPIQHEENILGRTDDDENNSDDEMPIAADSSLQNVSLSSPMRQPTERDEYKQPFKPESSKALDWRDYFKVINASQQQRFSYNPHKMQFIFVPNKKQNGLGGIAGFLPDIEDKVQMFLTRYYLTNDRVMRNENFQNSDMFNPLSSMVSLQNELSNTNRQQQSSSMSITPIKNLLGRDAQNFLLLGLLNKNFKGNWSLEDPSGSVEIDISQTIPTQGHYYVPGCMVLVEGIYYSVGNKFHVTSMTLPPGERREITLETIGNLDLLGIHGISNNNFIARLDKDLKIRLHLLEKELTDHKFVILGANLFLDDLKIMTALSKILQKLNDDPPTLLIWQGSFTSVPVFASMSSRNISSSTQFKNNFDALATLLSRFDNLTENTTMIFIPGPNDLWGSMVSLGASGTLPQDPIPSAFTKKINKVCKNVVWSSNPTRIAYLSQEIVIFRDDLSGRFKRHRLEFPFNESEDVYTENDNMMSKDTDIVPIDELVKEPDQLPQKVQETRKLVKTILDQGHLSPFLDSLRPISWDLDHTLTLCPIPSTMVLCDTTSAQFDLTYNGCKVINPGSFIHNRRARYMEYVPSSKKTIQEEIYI
T1 sequence (P27344 whole entry, chain 3 of 4): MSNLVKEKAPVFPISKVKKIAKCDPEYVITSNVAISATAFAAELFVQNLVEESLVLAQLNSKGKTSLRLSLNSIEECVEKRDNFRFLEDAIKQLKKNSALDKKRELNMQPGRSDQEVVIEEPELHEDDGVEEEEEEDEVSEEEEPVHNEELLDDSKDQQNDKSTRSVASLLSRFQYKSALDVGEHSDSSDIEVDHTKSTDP
T1 sequence (Q04603 whole entry, chain 4 of 4): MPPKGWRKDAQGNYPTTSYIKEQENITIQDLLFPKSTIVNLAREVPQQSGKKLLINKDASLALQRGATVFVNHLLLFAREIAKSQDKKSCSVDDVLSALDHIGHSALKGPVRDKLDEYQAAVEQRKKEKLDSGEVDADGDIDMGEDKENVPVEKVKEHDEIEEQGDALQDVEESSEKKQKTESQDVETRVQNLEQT

band intensity compared to Psf1 (relative to Psf1) [1]: 0.96
band intensity compared to Psf1 (relative to Psf1) [2]: 0.31
Molecule: DNA polymerase epsilon (Pol ε) comprising Pol2, Dpb2, Dpb3 and Dpb4 subunits, P21951 1-2222; P24482 1-689; P27344 1-201; Q04603 1-196

binding result [3]: binds
B1: GINS complex (Psf1, Psf2, Psf3, Halotag-Sld5), wild type (complex, S. cerevisiae)
chain 1: MYGDLGNKLVLEAKRTKQLYARSNQDVNLPMYHEDIIRNILKEVSNLRKNTEYLKEQQQLGMLDDKVAKCQYFVTLLCMERNKRCLLAYQRLRTDILDSMAWNNNGLDLMSSITFSQQDTNNLSHQEQEYLKEYCDLITDLKSGDLVDIDLSGSLVPPSDVFIDVRVLKDAGEIQTEYGVFNLIKDSQFFVRQSDVERLIQQGYLQKI
chain 2: MSLPAHLQQTFSPEEIQFIVENEPIKIFPRITTRQKIRGDDRGTGNHTRWQLITTDDKALNNMVAMRSTEVVLWIALLLKQQSKCSIVAPQWLTTKELDRKIQYEKTHPDRFSELPWNWLVLARILFNKAKDDFHDPIHELRGKIQDLREIRQIKVLKGLKYLNESHLQLDNLSLLEINELRPFITEIMDKLREIHTASLTAGTENDEEEFNI
chain 3: MGYYDIDDVLADGTEFPCKFQYDIPGLGYLENNPGRPITKNTKLSLPLWLARILAIVGGDEALVDEEPVPFVELLPPDMFSTKVMNAIKTDPVALDLHSINSHFFSLAIKWIMLFSEKELANVVSELLLQRAQELNHHASSLSIDLNADSTGKNSANTNIATSTFLLKLEEMEKEIYKKSHESYKDTKRWMFKK
chain 4: MDINIDDILAELDKETTAVDSTKITQGSSSTTHRDANTIVGSSLDLNDKTQIYVSPQQDFSDLMKSWKNERCSPELLPYPHQLMKRLLNRISMQSQLIENISMGFLDMQNASNANPPMPNESKLPLLCMETELERLKFVIRSYIRCRLSKIDKFSLYLRQLNEDENSLISLTDLLSKDEIKYHDTHSLIWLKLVNDSILKYMPEELQAINDTEGSVNMIDEPDWNKFVFIHVNGPPDGKWNEDPLLQENEFGKPCYTVTIPDLKEEVELTIGSIYVMRYEVIRDLLRDDKVALI
notes: Psf1 subunit of GINS, S. cerevisiae; Psf2 subunit of GINS, S. cerevisiae; Psf3 subunit of GINS, S. cerevisiae; Sld5 subunit of GINS, S. cerevisiae; also called GINS_(Psf1); WT; source: purified as described previously [40]; copies: + + +
